This is an account of results in US20240392004A1 (IMMUNOWAKE, published 2024).

Positions count from the first letter of the chain named. Names may count otherwise. A value given as a limit tells only on which side of the number the result lay.

Assay in all cases: cell-based or functional assay
The target in test [1] is T1, human IL-12 receptor complex (IL-12Rβ1 and IL-12Rβ2) (human, UniProt P42701 24-662; Q99665 24-862).
Test [2] addresses human PD-1 on cells (HEK-PD-1 reporter cells; activated PBMC) (human, UniProt Q15116 25-288).
Test [3] deals with T1, human IL-12 receptor complex (IL-12Rβ1 …). This is another data set of the same source.
The target of test [4] is T2, human TIGIT on HEK-Blue reporter cells (human, UniProt Q495A1 22-244).
T2 sequence (looked up): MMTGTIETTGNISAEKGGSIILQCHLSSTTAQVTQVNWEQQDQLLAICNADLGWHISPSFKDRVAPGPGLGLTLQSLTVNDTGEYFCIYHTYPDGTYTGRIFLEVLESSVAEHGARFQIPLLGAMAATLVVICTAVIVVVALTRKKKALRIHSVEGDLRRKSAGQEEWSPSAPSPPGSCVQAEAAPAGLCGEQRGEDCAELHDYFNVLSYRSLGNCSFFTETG

Test [5] concerns the target T3, human IL-2 receptor (IL-2Rα, IL-2Rβ, IL-2Rγ) (human, UniProt P01589 22-272; P14784 27-551; P31785 23-369).
T3 sequence (looked up) 1: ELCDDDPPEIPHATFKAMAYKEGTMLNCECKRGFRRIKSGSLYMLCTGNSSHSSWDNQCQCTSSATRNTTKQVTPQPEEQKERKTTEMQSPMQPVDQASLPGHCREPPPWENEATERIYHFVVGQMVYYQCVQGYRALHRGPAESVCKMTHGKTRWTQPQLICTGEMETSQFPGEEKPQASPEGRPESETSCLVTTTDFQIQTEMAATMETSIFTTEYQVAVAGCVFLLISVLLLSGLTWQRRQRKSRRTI
T3 sequence (looked up) 2: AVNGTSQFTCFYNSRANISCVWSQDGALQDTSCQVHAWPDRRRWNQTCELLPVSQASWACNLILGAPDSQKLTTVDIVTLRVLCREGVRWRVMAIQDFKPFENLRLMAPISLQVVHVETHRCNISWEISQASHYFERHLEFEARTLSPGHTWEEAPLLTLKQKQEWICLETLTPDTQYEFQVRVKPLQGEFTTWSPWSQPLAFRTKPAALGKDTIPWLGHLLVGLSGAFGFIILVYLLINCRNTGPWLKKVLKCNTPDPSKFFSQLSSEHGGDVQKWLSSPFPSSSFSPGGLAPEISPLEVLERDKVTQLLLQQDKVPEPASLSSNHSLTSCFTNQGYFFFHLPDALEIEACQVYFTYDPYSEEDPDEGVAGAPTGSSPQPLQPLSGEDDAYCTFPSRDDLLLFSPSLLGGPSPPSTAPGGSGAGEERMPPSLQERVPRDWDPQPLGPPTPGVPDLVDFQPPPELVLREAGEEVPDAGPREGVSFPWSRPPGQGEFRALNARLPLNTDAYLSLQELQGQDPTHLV
T3 sequence (looked up) 3: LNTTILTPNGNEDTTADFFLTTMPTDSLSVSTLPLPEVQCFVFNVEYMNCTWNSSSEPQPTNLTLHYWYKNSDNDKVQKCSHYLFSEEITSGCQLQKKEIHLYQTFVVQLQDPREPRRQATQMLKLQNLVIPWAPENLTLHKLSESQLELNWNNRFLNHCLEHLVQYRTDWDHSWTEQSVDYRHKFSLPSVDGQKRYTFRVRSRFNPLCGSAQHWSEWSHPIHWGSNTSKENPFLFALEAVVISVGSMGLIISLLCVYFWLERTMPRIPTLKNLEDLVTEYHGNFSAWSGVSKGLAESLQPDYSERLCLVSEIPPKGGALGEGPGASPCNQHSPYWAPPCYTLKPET

human PD-1 on cells (HEK-PD-1 reporter cells; activated PBMC), sequence (Q15116 25-288): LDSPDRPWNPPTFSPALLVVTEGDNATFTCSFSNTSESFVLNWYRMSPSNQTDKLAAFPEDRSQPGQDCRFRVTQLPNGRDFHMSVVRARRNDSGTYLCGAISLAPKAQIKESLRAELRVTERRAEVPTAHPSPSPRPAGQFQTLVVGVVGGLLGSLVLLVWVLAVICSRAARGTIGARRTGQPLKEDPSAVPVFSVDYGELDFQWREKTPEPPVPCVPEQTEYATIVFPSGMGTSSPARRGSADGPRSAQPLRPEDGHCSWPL
T1 sequence (Q99665 24-862, chain 2 of 2, other chains not shown): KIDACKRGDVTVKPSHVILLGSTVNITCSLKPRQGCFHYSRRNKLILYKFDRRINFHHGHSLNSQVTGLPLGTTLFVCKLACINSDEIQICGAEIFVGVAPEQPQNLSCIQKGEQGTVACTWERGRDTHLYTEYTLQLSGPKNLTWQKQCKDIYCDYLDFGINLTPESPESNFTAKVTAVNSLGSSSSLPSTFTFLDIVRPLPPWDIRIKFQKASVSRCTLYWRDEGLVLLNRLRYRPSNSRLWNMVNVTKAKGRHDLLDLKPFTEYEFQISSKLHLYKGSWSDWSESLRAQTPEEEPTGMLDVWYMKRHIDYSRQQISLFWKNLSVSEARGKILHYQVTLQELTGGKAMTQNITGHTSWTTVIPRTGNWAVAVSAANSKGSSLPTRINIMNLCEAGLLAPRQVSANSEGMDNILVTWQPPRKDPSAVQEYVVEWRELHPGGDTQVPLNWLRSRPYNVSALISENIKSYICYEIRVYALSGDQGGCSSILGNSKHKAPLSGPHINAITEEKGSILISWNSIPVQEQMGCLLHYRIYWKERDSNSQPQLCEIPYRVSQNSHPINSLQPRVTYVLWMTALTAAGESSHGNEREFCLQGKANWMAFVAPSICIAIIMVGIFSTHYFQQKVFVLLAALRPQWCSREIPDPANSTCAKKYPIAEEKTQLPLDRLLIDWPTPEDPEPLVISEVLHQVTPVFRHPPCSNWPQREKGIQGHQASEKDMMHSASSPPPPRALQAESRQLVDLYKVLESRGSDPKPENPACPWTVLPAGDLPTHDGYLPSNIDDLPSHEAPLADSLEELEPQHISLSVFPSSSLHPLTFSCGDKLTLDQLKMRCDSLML

B1: IL-12(E59A/F60A)/anti-PD-1(N99A) (antibody)
light: not shown
heavy: not shown
heavy (part 1 of 2): QVQLVESGGGVVQPGRSLRLDCKASGITFSNSGMHWVRQAPGKGLEWVAVIWYDGSKRYYADSVKGRFTISRDNSKNTLFLQMNSLRAEDTAVYYCATADDYWGQGTLVTVSSAS
heavy (part 2 of 2): EPKSCDKTHTCPPCPAPEKKGGPSVFLFPPKPKDTLMISRTPEVTCVVVDVSHEDPEVKFNWYVDGVEVHNAKTKPREEQYNSTYRVVSVLTVLHQDWLNGKEYKCKVSNKALPAPIEKTISKAKGQPREPQVYVLPPSREEMTKNQVSLLCLVKGFYPSDIAVEWESNGQPENRYMTWPPVLDSDGSFFLYSKLTVDKSRWQQGNVFSCSVMHEALHNHYTQKSLSLSPGK
Regarding B1, the “IL-12 signal transduction, HEK IL-12” value in test [1] is under 0.2%. Also, in test [2], the “IFN-γ release, activated PBMC” value came to 12 ng/mL; the “IL-12 signal transduction, HEK-IL-12-PD-1 (high)” value is 3%; the “IL-12 signal transduction, HEK-IL-12-PD-1 (low)” value was under 0.2%.

B2: IL-12(E59A/F60A)/anti-PD-1(N99M) (antibody)
light: not shown
heavy: not shown
heavy (part 1 of 2): B1 heavy (part 1 of 2) with A99M
heavy (part 2 of 2): B1 heavy (part 2 of 2)
Turning to B2, the “IL-12 signal transduction, HEK IL-12” value in test [1] is under 0.2%. In test [2], the “IFN-γ release, activated PBMC” value is 13 ng/mL; the “IL-12 signal transduction, HEK-IL-12-PD-1 (high)” value was under 0.2%; the “IL-12 signal transduction, HEK-IL-12-PD-1 (low)” value was under 0.2%.

B3: CD155-Fc/IL-12(E59A/F60A) (IL-12 at C'), printed in Table 21 as IL-12(E59A/F60A)/CD155-Fc (Fc fusion)
chain 1: WPPPGTGDVVVQAPTQVPGFLGDSVTLPCYLQVPNMEVTHVSQLTWARHGESGSMAVFHQTQGPSYSESKRLEFVAARLGAELRNASLRMFGLRVEDEGNYTCLFVTFPQGSRSVDIWLRVLAKPQNTAEVQKVQLTGEPVPMARCVSTGGRPPAQITWHSDLGGMPNTSQVPGFLSGTVTVTSLWILVPSSQVDGKNVTCKVEHESFEKPQLLTVNLTVYYPPEVSISGYDNNWYLGQNEATLTCDARSNPEPTGYNWSTTMGPLPPFAVAQGAQLLIRPVDKPINTTLICNVTNALGARQAELTVQVKEGPPSEHSGISRNGGGGSGGGDKTHTCPPCPAPEDEGGPSVFLFPPKPKDTLMISRTPEVTCVVVDVSHEDPEVKFNWYVDGVEVHNAKTKPREEQYNSTYRVVSVLTVLHQDWLNGKEYKCKVSNKALPAPIEKTISKAKGQPREPQVYVYPPSREEMTKNQVSLTCLVKGFYPSDIAVEWESNGQPENNYKTTPPVLDEDGSFALVSKLTVDKSRWQQGNVFSCSVMHEALHNHYTQKSLSLSPGKGGGGSGGGIWELKKDVYVVELDWYPDAPGEMVVLTCDTPEEDGITWTLDQSSEVLGSGKTLTIQVKAAGDAGQYTCHKGGEVLSHSLLLLHKKEDGIWSTDILKDQKEPKNKTFLRCEAKNYSGRFTCWWLTTISTDLTFSVKSSRGSSDPQGVTCGAATLSAERVRGDNKEYEYSVECQEDSACPAAEESLPIEVMVDAVHKLKYENYTSSFFIRDIIKPDPPKNLQLKPLKNSRQVEVSWEYPDTWSTPHSYFSLTFCVQVQGKSKREKKDRVFTDKTSATVICRKNASISVRAQDRYYSSSWSEWASVPCSGGGGSGGGSGGGGSRNLPVATPDPGMFPCLHHSQNLLRAVSNMLQKARQTLEFYPCTSEEIDHEDITKDKTSTVEACLPLELTKNESCLNSRETSFITNGSCLASRKTSFMMALCLSSIYEDLKMYQVEFKTMNAKLLMDPKRQIFLDQNMLAVIDELMQALNFNSETVPQKSSLEEPDFYKTKIKLCILLHAFRIRAVTIDRVMSYLNAS
chain 2: WPPPGTGDVVVQAPTQVPGFLGDSVTLPCYLQVPNMEVTHVSQLTWARHGESGSMAVFHQTQGPSYSESKRLEFVAARLGAELRNASLRMFGLRVEDEGNYTCLFVTFPQGSRSVDIWLRVLAKPQNTAEVQKVQLTGEPVPMARCVSTGGRPPAQITWHSDLGGMPNTSQVPGFLSGTVTVTSLWILVPSSQVDGKNVTCKVEHESFEKPQLLTVNLTVYYPPEVSISGYDNNWYLGQNEATLTCDARSNPEPTGYNWSTTMGPLPPFAVAQGAQLLIRPVDKPINTTLICNVTNALGARQAELTVQVKEGPPSEHSGISRNGGGGSGGGDKTHTCPPCPAPEKKGGPSVFLFPPKPKDTLMISRTPEVTCVVVDVSHEDPEVKFNWYVDGVEVHNAKTKPREEQYNSTYRVVSVLTVLHQDWLNGKEYKCKVSNKALPAPIEKTISKAKGQPREPQVYVLPPSREEMTKNQVSLLCLVKGFYPSDIAVEWESNGQPENRYMTWPPVLDSDGSFFLYSKLTVDKSRWQQGNVFSCSVMHEALHNHYTQKSLSLSPGK
As for B3, the “IL-12 signal transduction, HEK-IL-12” value in test [3] amounted to 2%. In addition, in test [4], the “IL-2 signal transduction, HEK-IL-2-TIGIT” value is under 0.1% and the “IL-12 signal transduction, HEK-IL-12-TIGIT” value was determined as 35%. In addition, in test [5], the “IL-2 signal transduction, HEK-IL-2” value was under 0.1%.

B4: IL-2(L18R/Q22E/R38D/K43E/E61R/Q126T/S130R)/CD155-Fc/IL-12(E59A/F60A) (Fc fusion)
chain 1: B3 chain 1
chain 2: WPPPGTGDVVVQAPTQVPGFLGDSVTLPCYLQVPNMEVTHVSQLTWARHGESGSMAVFHQTQGPSYSESKRLEFVAARLGAELRNASLRMFGLRVEDEGNYTCLFVTFPQGSRSVDIWLRVLAKPQNTAEVQKVQLTGEPVPMARCVSTGGRPPAQITWHSDLGGMPNTSQVPGFLSGTVTVTSLWILVPSSQVDGKNVTCKVEHESFEKPQLLTVNLTVYYPPEVSISGYDNNWYLGQNEATLTCDARSNPEPTGYNWSTTMGPLPPFAVAQGAQLLIRPVDKPINTTLICNVTNALGARQAELTVQVKEGPPSEHSGISRNGGGSGAPTSSSTKKTQLQLEHLRLDLEMILNGINNYKNPKLTDMLTFEFYMPKKATELKHLQCLERELKPLEEVLNLAQSKNFHLRPRDLISNINVIVLELKGSETTFMCEYADETATIVEFLNRWITFCTSIIRTLTGGGGSGGGDKTHTCPPCPAPEKKGGPSVFLFPPKPKDTLMISRTPEVTCVVVDVSHEDPEVKFNWYVDGVEVHNAKTKPREEQYNSTYRVVSVLTVLHQDWLNGKEYKCKVSNKALPAPIEKTISKAKGQPREPQVYVLPPSREEMTKNQVSLLCLVKGFYPSDIAVEWESNGQPENRYMTWPPVLDSDGSFFLYSKLTVDKSRWQQGNVFSCSVMHEALHNHYTQKSLSLSPGK
Take B4: the “IL-12 signal transduction, HEK-IL-12” value in test [3] worked out at 3%. In test [4], the “IL-2 signal transduction, HEK-IL-2-TIGIT” value is under 0.1% and the “IL-12 signal transduction, HEK-IL-12-TIGIT” value turned out to be 24%. The “IL-2 signal transduction, HEK-IL-2” value in test [5] is under 0.1%.

B5: IL-2(R38D/K43E/E61R/Q126T)/CD155-Fc/IL-12(E59A/F60A) (Fc fusion)
chain 1: B3 chain 1
chain 2: B4 chain 2 with R346L, E350Q, R458S
As for B5, the “IL-12 signal transduction, HEK-IL-12” value in test [3] is 2%. In addition, in test [4], the “IL-2 signal transduction, HEK-IL-2-TIGIT” value stood at 28% and the “IL-12 signal transduction, HEK-IL-12-TIGIT” value was 32%. In addition, the “IL-2 signal transduction, HEK-IL-2” value in test [5] was found to be 3%.

B6: IL-2(L18R/Q22E/R38D/K43E/E61R/Q126T)/CD155-Fc/IL-12(E59A/F60A) (Fc fusion)
chain 1: B3 chain 1
chain 2: B4 chain 2 with R458S
Turning to B6, the “IL-12 signal transduction, HEK-IL-12” value in test [3] was under 0.2%. For the same molecule, in test [4], the “IL-2 signal transduction, HEK-IL-2-TIGIT” value was determined as 18% and the “IL-12 signal transduction, HEK-IL-12-TIGIT” value worked out at 29%. In test [5], the “IL-2 signal transduction, HEK-IL-2” value was 5%.

B7: IL-2(L18R/Q22E/R38D/K43E/E61R)/CD155-Fc/IL-12(E59A/F60A) (Fc fusion)
chain 1: B3 chain 1
chain 2: B4 chain 2 with T454Q, R458S
For the molecule B7, the “IL-12 signal transduction, HEK-IL-12” value in test [3] amounted to 1%. In test [4], the “IL-2 signal transduction, HEK-IL-2-TIGIT” value is 81% and the “IL-12 signal transduction, HEK-IL-12-TIGIT” value worked out at 42%. Also, the “IL-2 signal transduction, HEK-IL-2” value in test [5] is 15%.
